molecular target: T1, rabbit-lung angiotensin converting enzyme (ACE) (Sigma) (rabbit, UniProt P12822 34-1310, limits assumed); experiment: cell-based or functional assay
T1 sequence (looked up): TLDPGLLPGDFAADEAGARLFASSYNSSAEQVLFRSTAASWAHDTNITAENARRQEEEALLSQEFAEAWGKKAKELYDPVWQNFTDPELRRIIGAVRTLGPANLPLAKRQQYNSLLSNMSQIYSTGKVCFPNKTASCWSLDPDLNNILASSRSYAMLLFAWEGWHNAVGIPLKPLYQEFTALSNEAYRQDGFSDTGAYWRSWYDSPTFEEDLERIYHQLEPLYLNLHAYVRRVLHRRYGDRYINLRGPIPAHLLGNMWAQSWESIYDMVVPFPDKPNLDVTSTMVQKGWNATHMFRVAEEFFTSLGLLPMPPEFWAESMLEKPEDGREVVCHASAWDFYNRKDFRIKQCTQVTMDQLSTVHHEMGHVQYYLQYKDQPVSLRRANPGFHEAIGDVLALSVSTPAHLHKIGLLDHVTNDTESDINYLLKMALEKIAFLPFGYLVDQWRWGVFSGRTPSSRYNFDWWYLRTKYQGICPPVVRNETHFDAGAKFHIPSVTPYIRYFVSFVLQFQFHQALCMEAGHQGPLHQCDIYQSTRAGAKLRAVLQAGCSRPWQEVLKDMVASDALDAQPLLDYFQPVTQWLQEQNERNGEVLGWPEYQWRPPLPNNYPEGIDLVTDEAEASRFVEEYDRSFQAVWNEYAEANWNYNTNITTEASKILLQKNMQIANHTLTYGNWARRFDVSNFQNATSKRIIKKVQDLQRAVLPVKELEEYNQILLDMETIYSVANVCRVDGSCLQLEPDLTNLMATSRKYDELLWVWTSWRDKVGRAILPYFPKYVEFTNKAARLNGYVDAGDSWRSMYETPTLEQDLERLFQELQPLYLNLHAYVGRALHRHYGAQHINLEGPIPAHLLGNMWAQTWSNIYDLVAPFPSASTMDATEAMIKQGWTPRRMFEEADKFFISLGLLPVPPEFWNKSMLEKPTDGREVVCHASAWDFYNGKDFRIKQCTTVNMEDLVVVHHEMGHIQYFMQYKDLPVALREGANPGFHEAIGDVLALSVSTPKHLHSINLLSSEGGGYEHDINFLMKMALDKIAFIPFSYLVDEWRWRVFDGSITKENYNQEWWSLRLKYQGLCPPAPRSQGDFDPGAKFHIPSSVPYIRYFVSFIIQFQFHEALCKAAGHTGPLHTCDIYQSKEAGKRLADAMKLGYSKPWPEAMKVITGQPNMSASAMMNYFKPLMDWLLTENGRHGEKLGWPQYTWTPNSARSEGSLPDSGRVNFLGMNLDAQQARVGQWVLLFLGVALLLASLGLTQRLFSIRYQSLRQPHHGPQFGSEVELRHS

ACE inhibitory activity, IC50	Binder
1850 nM	YGCGCDPL [SEQ ID NO: 3 peptide YGCGCDPL]
2580 nM	LEEFCC [SEQ ID NO: 4 peptide LEEFCC]
6880 nM	WAAGYCC [SEQ ID NO: 6 peptide WAAGYCC]
1640 nM	YYCPADCPS [SEQ ID NO: 2 peptide YYCPADCPS]
840 nM	RDGGYCC [SEQ ID NO: 1 peptide RDGGYCC]
39600 nM	CCGNAVPQ [SEQ ID NO: 7 peptide CCGNAVPQ]
2590 nM	HCGCNTH [SEQ ID NO: 5 peptide HCGCNTH]
